Experimental data as given in patent US20130330346A1 (Novartis, published 2013).

T1: Human CXCR2 (human, UniProt P25025 1-360)
T1 sequence: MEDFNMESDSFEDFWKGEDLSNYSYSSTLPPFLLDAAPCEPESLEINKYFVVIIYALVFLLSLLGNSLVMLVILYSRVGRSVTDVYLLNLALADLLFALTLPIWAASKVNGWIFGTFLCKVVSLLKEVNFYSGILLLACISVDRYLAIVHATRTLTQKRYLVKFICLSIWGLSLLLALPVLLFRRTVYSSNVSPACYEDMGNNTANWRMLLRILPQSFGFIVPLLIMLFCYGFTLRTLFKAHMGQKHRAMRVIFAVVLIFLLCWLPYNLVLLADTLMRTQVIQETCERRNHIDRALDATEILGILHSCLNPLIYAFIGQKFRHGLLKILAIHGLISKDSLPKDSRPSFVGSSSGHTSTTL

T2: Cynomolgus CXCR2 (cynomolgus, UniProt Q28519 3-353 (rhesus entry))
T2 chain: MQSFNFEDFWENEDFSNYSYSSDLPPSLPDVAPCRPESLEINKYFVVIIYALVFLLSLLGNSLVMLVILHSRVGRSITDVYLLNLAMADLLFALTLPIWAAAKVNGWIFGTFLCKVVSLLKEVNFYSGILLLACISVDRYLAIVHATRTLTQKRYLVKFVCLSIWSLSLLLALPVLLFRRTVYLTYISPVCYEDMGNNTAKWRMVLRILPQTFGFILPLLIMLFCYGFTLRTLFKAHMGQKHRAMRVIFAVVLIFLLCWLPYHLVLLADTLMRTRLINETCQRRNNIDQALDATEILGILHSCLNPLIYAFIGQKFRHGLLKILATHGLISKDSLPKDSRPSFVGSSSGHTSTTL


How the values were obtained:
Human CXCR2 [1] = target: T1, Human CXCR2; assay: cell-based or functional assay
Cynomolgus CXCR2 [2] = target: T2, Cynomolgus CXCR2; assay: cell-based or functional assay
Human CXCR2 [3] = target: T1, Human CXCR2; assay: FACS competition vs 3 nM FMAT-Blue Gro-α
Experimental: (§1) Multivalent anti-CXCR2Nanobodies were titrated against 3 nM FMAT-Blue-labeled Gro-α in the FACS ligand competition assay on human and cynomolgus CXCR2 (Table 14). On human CXCR2, blocking potencies range between double digit nM and sub-nM whereas on cynomolgus CXCR2, they range between single and double digit nM.

Cynomolgus CXCR2 [4] = target: T2, Cynomolgus CXCR2; assay: FACS competition vs 3 nM FMAT-Blue Gro-α
Experimental: as §1

Binder | FLIPR % inhibition of max (Human CXCR2 [1]) [%] | FLIPR IC50 (GRO-α induced calcium release) (Human CXCR2 [1]) [nM] | FLIPR % inhibition of max (Cynomolgus CXCR2 [2]) [%] | FLIPR IC50 (GRO-α induced calcium release) (Cynomolgus CXCR2 [2]) [nM] | % inhibition of max (Human CXCR2 [3]) [%] | IC50 (Human CXCR2 [3]) [nM] | % inhibition of max (Cynomolgus CXCR2 [4]) [%] | IC50 (Cynomolgus CXCR2 [4]) [nM]
CXCR20036 (other, Biparatopic: two VHH joined by a GlySer linker; also called 54B12-35GS-163D2; 54B12-163D2; not shown: C-terminal c-myc tag and His6 tag coded by pAX100) EVQLVESGGGLVQAGGSLTLSCAVSGSTFRINTMGWYRRAPGKQRELVAARDRGGYINYVDSVKGRFTVSRDNAKPTMYLQMNSLKPEDTAVYYCHAGTQDRTGRNFDRWGQGTQVTVSSGGGGSGGGGSGGGGSGGGGSGGGGSGGGGSGGGGSEVQLVESGGGLVQAGGSLRLSCAASGRTFSDYAMGWFRQAPGKEREFVAAITWNGGRVFYTASVKGRFTISRDNAKNTMYLQMNSLKPEDTAVYYCAADKDRRTDYLGHPVAYWGQGTQVTVSS | 100 | 7.86 | 100 | 4.27 | 98 | 0.7 | 98 | 2.27
CXCR20015 (other, Two different VHH joined by a GlySer linker; also called 2B2-35GS-137B7; not shown: C-terminal c-myc tag and His6 tag coded by pAX100) EVQLVESGGELVQPGGSLRLSCAASGSILTINAMGWYRQAPGKQRELVVRRTRGGSTTYQDSVKGRFTISADIAKKTMYLQMNSLKPEDTAVYYCMLDDRGGVYWGQGTQVTVSSGGGGSGGGGSGGGGSGGGGSGGGGSGGGGSGGGGSEVQLVESGGGLVQPGGSVRLSCVASGIIFRLSALGWTRQGPGKAREWVAGINSDGTTNYADPVKGRFTISRDNAKNTIYLHMDMLKPEDTAVYYCASGKYRGQGTQVTVSS | 100 | 2.78 | 100 | 2870 | 99 | 0.7 | 81.5 | 99
CXCR20018 (other, Two different VHH joined by a GlySer linker; also called 137B7-35GS-97A9; not shown: C-terminal c-myc tag and His6 tag coded by pAX100) EVQLVESGGGLVQPGGSVRLSCVASGIIFRLSALGWTRQGPGKAREWVAGINSDGTTNYADPVKGRFTISRDNAKNTIYLHMDMLKPEDTAVYYCASGKYRGQGTQVTVSSGGGGSGGGGSGGGGSGGGGSGGGGSGGGGSGGGGSEVQLVESGGGLVQPGGSLRLSCVASGSIVRINTMGWYRQTPGKQRELVADITSGGNINYIDAVKGRFTISRDNTKNTVYLQMNSLKPEDTAVYYCNAEIVVLVGVWTQRARTGNYWGQGTQVTVSS | – | – | – | – | 98 | 1.9 | 47 | 50.8
CXCR20029 (other, Biparatopic: two VHH joined by a GlySer linker; also called 163E3-35GS-54B12; not shown: C-terminal c-myc tag and His6 tag coded by pAX100) EVQLVESGGGLVQPGGSLRLSCVASGRIFSSNAMGWFRQAPGKEREFVAAITWRSGGSAYYADSAKGRFTISRDNAKNTVYLQMNSLKPEDTAVYYCAAGGSSWLSFPPDYWGQGTQVTVSSGGGGSGGGGSGGGGSGGGGSGGGGSGGGGSGGGGSEVQLVESGGGLVQAGGSLTLSCAVSGSTFRINTMGWYRRAPGKQRELVAARDRGGYINYVDSVKGRFTVSRDNAKPTMYLQMNSLKPEDTAVYYCHAGTQDRTGRNFDRWGQGTQVTVSS | 100 | 17.1 | 100 | 10.1 | 98.5 | 1.13 | 98.5 | 2.09
CXCR20027 (bispecific antibody, Two different VHH joined by a GlySer linker; also called 163E3-35GS-163D2; not shown: C-terminal c-myc tag and His6 tag coded by pAX100) EVQLVESGGGLVQPGGSLRLSCVASGRIFSSNAMGWFRQAPGKEREFVAAITWRSGGSAYYADSAKGRFTISRDNAKNTVYLQMNSLKPEDTAVYYCAAGGSSWLSFPPDYWGQGTQVTVSSGGGGSGGGGSGGGGSGGGGSGGGGSGGGGSGGGGSEVQLVESGGGLVQAGGSLRLSCAASGRTFSDYAMGWFRQAPGKEREFVAAITWNGGRVFYTASVKGRFTISRDNAKNTMYLQMNSLKPEDTAVYYCAADKDRRTDYLGHPVAYWGQGTQVTVSS | 100 | 17.8 | 100 | 12.7 | 100 | 4.9 | 97 | 6.42
CXCR20019 (VHH, Bivalent: two VHH joined by a 9GS linker; also called 2B2-9GS-2B2; not shown: C-terminal c-myc tag and His6 tag coded by pAX100) EVQLVESGGELVQPGGSLRLSCAASGSILTINAMGWYRQAPGKQRELVVRRTRGGSTTYQDSVKGRFTISADIAKKTMYLQMNSLKPEDTAVYYCMLDDRGGVYWGQGTQVTVSSGGGGSGGGSEVQLVESGGELVQPGGSLRLSCAASGSILTINAMGWYRQAPGKQRELVVRRTRGGSTTYQDSVKGRFTISADIAKKTMYLQMNSLKPEDTAVYYCMLDDRGGVYWGQGTQVTVSS | – | – | – | – | 50.6 | 0.044 | 81 | 1.8
CXCR20013 (bispecific antibody, Biparatopic: two VHH joined by a GlySer linker; also called 2B2-35GS-97A9; not shown: C-terminal c-myc tag and His6 tag coded by pAX100) EVQLVESGGELVQPGGSLRLSCAASGSILTINAMGWYRQAPGKQRELVVRRTRGGSTTYQDSVKGRFTISADIAKKTMYLQMNSLKPEDTAVYYCMLDDRGGVYWGQGTQVTVSSGGGGSGGGGSGGGGSGGGGSGGGGSGGGGSGGGGSEVQLVESGGGLVQPGGSLRLSCVASGSIVRINTMGWYRQTPGKQRELVADITSGGNINYIDAVKGRFTISRDNTKNTVYLQMNSLKPEDTAVYYCNAEIVVLVGVWTQRARTGNYWGQGTQVTVSS | 100 | 2.93 | 100 | 29.2 | 90 | 0.9 | 98.5 | 4.2
CXCR20016 (other, Two different VHH joined by a GlySer linker; also called 137B7-35GS-2B2; not shown: C-terminal c-myc tag and His6 tag coded by pAX100) EVQLVESGGGLVQPGGSVRLSCVASGIIFRLSALGWTRQGPGKAREWVAGINSDGTTNYADPVKGRFTISRDNAKNTIYLHMDMLKPEDTAVYYCASGKYRGQGTQVTVSSGGGGSGGGGSGGGGSGGGGSGGGGSGGGGSGGGGSEVQLVESGGELVQPGGSLRLSCAASGSILTINAMGWYRQAPGKQRELVVRRTRGGSTTYQDSVKGRFTISADIAKKTMYLQMNSLKPEDTAVYYCMLDDRGGVYWGQGTQVTVSS | 100 | 2.36 | 100 | 1100 | 100 | 0.8 | 88 | 5.7
CXCR20011 (VHH, Bivalent: two VHH joined by a GlySer linker; also called 97A9-35GS-97A9; not shown: C-terminal c-myc tag and His6 tag coded by pAX100) EVQLVESGGGLVQPGGSLRLSCVASGSIVRINTMGWYRQTPGKQRELVADITSGGNINYIDAVKGRFTISRDNTKNTVYLQMNSLKPEDTAVYYCNAEIVVLVGVWTQRARTGNYWGQGTQVTVSSGGGGSGGGGSGGGGSGGGGSGGGGSGGGGSGGGGSEVQLVESGGGLVQPGGSLRLSCVASGSIVRINTMGWYRQTPGKQRELVADITSGGNINYIDAVKGRFTISRDNTKNTVYLQMNSLKPEDTAVYYCNAEIVVLVGVWTQRARTGNYWGQGTQVTVSS | 100 | 137 | – | – | 99 | 35.2 | 60 | 97.4
CXCR20012 (other, Bivalent: two VHH joined by a GlySer linker; also called 137B7-35GS-137B7; not shown: C-terminal c-myc tag and His6 tag coded by pAX100) EVQLVESGGGLVQPGGSVRLSCVASGIIFRLSALGWTRQGPGKAREWVAGINSDGTTNYADPVKGRFTISRDNAKNTIYLHMDMLKPEDTAVYYCASGKYRGQGTQVTVSSGGGGSGGGGSGGGGSGGGGSGGGGSGGGGSGGGGSEVQLVESGGGLVQPGGSVRLSCVASGIIFRLSALGWTRQGPGKAREWVAGINSDGTTNYADPVKGRFTISRDNAKNTIYLHMDMLKPEDTAVYYCASGKYRGQGTQVTVSS | – | – | – | – | 99.1 | 0.606 | – | –
